Target: mCherry-tagged human vimentin (human) (UniProt P08670)
Test: co-IP; mCherry-vimentin or RFP from bEnd.3 cell extracts immunoprecipitated with RFP-trap beads, then incubated with purified InlF-His6; eluates blotted with anti-His6 and anti-RFP; densitometry

mCherry-tagged human vimentin (human), sequence (P08670 whole entry): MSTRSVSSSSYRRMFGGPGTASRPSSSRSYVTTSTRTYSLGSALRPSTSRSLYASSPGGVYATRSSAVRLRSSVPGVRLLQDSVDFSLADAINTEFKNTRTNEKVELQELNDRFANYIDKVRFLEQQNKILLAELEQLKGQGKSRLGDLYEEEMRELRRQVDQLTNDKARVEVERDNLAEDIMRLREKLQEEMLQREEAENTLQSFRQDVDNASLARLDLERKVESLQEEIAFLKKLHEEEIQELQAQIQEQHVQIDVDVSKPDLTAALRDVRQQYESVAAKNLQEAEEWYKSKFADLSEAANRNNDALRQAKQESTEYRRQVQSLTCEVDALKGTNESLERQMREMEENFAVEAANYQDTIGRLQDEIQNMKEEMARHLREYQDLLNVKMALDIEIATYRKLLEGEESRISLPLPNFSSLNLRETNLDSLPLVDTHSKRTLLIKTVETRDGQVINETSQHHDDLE

InlF-His6 (Listeria monocytogenes internalin family surface protein InlF, His6-tagged) (from UniProt O33930 1-821) (natural protein)
ratio of anti-His to anti-RFP signals (densitometry), fold over the RFP control: > 5 fold
